Reference: publication PMC12746103, “Structural insights into the exchange mechanism of a replicative DNA polymerase” (Nucleic Acids Research, 2025)
“And” between values parts separate entries of the source, which are not always exact repeats. Identical values can stand only once.

B2: T4 bacteriophage gp43(exo-) exonuclease-deficient DNA polymerase (D219A) (enzyme, bacteriophage T4)
chain: MKEFYISIETVGNNIVERYIDENGKERTREVEYLPTMFRHCKEESKYKDIYGKNCAPQKFPSMKDARDWMKRMEDIGLEALGMNDFKLAYISDTYGSEIVYDRKFVRVANCDIEVTGDKFPDPMKAEYEIDAITHYDSIDDRFYVFDLLNSMYGSVSKWDAKLAAKLDCEGGDEVPQEILDRVIYMPFDNERDMLMEYINLWEQKRPAIFTGWNIEGFAVPYIMNRVKMILGERSMKRFSPIGRVKSKLIQNMYGSKEIYSIDGVSILDYLDLYKKFAFTNLPSFSLESVAQHETKKGKLPYDGPINKLRETNHQRYISYNIIDVESVQAIDKIRGFIDLVLSMSYYAKMPFSGVMSPIKTWDAIIFNSLKGEHKVIPQQGSHVKQSFPGAFVFEPKPIARRYIMSFDLTSLYPSIIRQVNISPETIRGQFKVHPIHEYIAGTAPKPSDEYSCSPNGWMYDKHQEGIIPKEIAKVFFQRKDWKKKMFAEEMNAEAIKKIIMKGAGSCSTKPEVERYVKFSDDFLNELSNYTESVLNSLIEECEKAATLANTNQLNRKILINSLYGALGNIHFRYYDLRNATAITIFGQVGIQWIARKINEYLNKVCGTNDEDFIAAGDTDSVYVCVDKVIEKVGLDRFKEQNDLVEFMNQFGKKKMEPMIDVAYRELCDYMNNREHLMHMDREAISCPPLGSKGVGGFWKAKKRYALNVYDMEDKRFAEPHLKIMGMETQQSSTPKAVQEALEESIRRILQEGEESVQEYYKNFEKEYRQLDYKVIAEVKTANDIAKYDDKGWPGFKCPFHIRGVLTYRRAVSGLGVAPILDGNKVMVLPLREGNPFGDKCIAWPSGTELPKEIRSDVLSWIDHSTLFQKSFVKPLAGMCESAGMDYEEKASLDFLFG
notes: DNA polymerase gp43 of bacteriophage T4 with the exonuclease-deficient mutation D219A; also called gp43 polymerase; T4 polymerase; source: E. coli BL21(DE3), purified (chitin resin with intein-mediated cleavage, heparin)
B3: T4 bacteriophage gp45 sliding clamp (natural protein, bacteriophage T4)
chain: MKLSKDTTALLKNFATINSGIMLKSGQFIMTRAVNGTTYAEANISDVIDFDVAIYDLNGFLGILSLVNDDAEISQSEDGNIKIADARSTIFWPAADPSTVVAPNKPIPFPVASAVTEIKAEDLQQLLRVSRGLQIDTIAITVKEGKIVINGFNKVEDSALTRVKYSLTLGDYDGENTFNFIINMANMKMQPGNYKLLLWAKGKQGAAKFEGEHANYVVALEADSTHDF
notes: sliding clamp gp45 of bacteriophage T4, wild type, homotrimeric ring; also called wt-gp45 clamp; gp45 clamp; source: E. coli BL21(DE3), pET26b, purified (hydroxyapatite, anion exchange)
B4: dimer-interface mutant gp43(exo-) polymerase (D75R, Q430E, K432E in gp43(exo-) D219A) (enzyme, bacteriophage T4)
chain: MKEFYISIETVGNNIVERYIDENGKERTREVEYLPTMFRHCKEESKYKDIYGKNCAPQKFPSMKDARDWMKRMERIGLEALGMNDFKLAYISDTYGSEIVYDRKFVRVANCDIEVTGDKFPDPMKAEYEIDAITHYDSIDDRFYVFDLLNSMYGSVSKWDAKLAAKLDCEGGDEVPQEILDRVIYMPFDNERDMLMEYINLWEQKRPAIFTGWNIEGFAVPYIMNRVKMILGERSMKRFSPIGRVKSKLIQNMYGSKEIYSIDGVSILDYLDLYKKFAFTNLPSFSLESVAQHETKKGKLPYDGPINKLRETNHQRYISYNIIDVESVQAIDKIRGFIDLVLSMSYYAKMPFSGVMSPIKTWDAIIFNSLKGEHKVIPQQGSHVKQSFPGAFVFEPKPIARRYIMSFDLTSLYPSIIRQVNISPETIRGEFEVHPIHEYIAGTAPKPSDEYSCSPNGWMYDKHQEGIIPKEIAKVFFQRKDWKKKMFAEEMNAEAIKKIIMKGAGSCSTKPEVERYVKFSDDFLNELSNYTESVLNSLIEECEKAATLANTNQLNRKILINSLYGALGNIHFRYYDLRNATAITIFGQVGIQWIARKINEYLNKVCGTNDEDFIAAGDTDSVYVCVDKVIEKVGLDRFKEQNDLVEFMNQFGKKKMEPMIDVAYRELCDYMNNREHLMHMDREAISCPPLGSKGVGGFWKAKKRYALNVYDMEDKRFAEPHLKIMGMETQQSSTPKAVQEALEESIRRILQEGEESVQEYYKNFEKEYRQLDYKVIAEVKTANDIAKYDDKGWPGFKCPFHIRGVLTYRRAVSGLGVAPILDGNKVMVLPLREGNPFGDKCIAWPSGTELPKEIRSDVLSWIDHSTLFQKSFVKPLAGMCESAGMDYEEKASLDFLFG
notes: DNA polymerase gp43 of bacteriophage T4 with D219A (exo-) and the three dimer-interface mutations D75R, Q430E and K432E; PDB 9EA3 holds this mutant; the other three entries hold its parent m1; also called dimer-interface mutant polymerase; mutant polymerase; source: E. coli BL21(DE3), purified (chitin resin with intein-mediated cleavage, heparin)

Experiments:
[1] = biological target: T1, dimer-interface mutant gp43(exo-) DNA polymerase;gp45 sliding clamp (wt) (T4 bacteriophage;T4 bacteriophage, UniProt P04415;P04525 1-898;1-228, D219A;D75R;Q430E;K432E|); assay: cryo-EM; ddTTP; one-polymerase holoenzyme, 4.0 A; cryo-EM assembly: 1.2 polymerase : 2 clamp : 1 DNA (molar) with ddTTP; proteins purified in HEPES pH 7.8 buffers; assembly salt and temperature not given in material; conditions: protein: recombinant;recombinant; tags: self-cleaving intein chitin tag, removed;; copies: 1;3; primer-template; 13 nt 5' template overhang, 25 bp duplex
T1 sequence 1: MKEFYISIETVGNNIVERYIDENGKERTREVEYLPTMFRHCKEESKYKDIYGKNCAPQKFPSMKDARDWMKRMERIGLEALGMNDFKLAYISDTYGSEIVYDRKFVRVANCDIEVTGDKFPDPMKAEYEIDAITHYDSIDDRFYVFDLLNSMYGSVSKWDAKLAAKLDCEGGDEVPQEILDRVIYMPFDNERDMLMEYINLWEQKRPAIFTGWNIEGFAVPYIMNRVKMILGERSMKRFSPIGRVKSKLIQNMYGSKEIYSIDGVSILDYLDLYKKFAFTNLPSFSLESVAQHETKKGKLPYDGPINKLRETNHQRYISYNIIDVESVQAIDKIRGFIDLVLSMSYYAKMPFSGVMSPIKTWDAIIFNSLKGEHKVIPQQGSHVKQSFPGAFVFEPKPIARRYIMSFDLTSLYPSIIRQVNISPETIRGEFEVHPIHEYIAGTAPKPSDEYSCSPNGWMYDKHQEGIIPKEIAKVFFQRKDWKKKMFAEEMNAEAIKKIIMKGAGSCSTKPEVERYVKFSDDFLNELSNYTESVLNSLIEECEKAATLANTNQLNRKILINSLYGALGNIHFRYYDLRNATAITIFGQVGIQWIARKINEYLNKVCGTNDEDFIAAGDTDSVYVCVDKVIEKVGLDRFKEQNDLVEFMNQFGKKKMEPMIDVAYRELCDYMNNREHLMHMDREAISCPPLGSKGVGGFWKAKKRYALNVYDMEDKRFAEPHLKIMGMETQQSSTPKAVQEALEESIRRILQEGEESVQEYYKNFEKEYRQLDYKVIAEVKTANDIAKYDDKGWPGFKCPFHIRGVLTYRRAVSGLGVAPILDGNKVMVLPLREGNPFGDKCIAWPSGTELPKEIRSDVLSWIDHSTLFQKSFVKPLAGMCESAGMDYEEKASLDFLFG
T1 sequence 2: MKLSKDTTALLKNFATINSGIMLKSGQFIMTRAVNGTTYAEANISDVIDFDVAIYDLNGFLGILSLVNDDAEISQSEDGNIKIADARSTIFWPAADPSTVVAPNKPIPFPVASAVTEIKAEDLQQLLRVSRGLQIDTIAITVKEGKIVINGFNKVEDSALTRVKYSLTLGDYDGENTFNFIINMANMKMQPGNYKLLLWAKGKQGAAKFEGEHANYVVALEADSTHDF

[2] = biological target: T2, gp43(exo-) DNA polymerase;gp45 sliding clamp (wt) (T4 bacteriophage;T4 bacteriophage, UniProt P04415;P04525 1-898;1-228, D219A|); assay: cryo-EM; ddTTP; two-polymerase complex state 1; DNA at right polymerase, primer end outside both active sites; cryo-EM assembly: 1.2 polymerase : 2 clamp : 1 DNA (molar) with ddTTP; proteins purified in HEPES pH 7.8 buffers; assembly salt and temperature not given in material; conditions: protein: recombinant;recombinant; chain copies: 2;3; primer-template; 13 nt 5' template overhang, 25 bp duplex
T2 sequence 1: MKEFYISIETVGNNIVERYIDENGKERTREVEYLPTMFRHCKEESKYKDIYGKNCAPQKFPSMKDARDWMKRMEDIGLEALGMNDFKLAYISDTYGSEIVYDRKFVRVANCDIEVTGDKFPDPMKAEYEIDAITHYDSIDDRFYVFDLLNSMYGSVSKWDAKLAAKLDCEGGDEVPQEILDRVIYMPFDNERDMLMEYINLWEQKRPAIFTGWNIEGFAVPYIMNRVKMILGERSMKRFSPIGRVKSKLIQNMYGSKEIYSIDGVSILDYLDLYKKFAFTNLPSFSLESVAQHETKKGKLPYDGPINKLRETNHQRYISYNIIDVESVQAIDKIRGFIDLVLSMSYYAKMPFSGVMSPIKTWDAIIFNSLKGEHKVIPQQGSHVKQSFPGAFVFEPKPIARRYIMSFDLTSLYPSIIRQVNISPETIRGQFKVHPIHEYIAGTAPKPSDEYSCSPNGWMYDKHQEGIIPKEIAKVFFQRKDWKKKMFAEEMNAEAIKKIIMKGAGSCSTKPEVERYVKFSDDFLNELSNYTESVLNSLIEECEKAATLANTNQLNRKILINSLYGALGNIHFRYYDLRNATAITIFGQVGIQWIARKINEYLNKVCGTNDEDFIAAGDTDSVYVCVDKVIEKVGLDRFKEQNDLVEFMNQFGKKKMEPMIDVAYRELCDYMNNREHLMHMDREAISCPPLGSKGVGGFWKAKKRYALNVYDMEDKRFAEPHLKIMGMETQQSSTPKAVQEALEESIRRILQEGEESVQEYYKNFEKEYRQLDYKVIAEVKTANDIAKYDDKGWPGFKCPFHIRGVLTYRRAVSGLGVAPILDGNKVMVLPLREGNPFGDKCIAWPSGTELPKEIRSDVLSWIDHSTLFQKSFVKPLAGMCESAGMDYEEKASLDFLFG
T2 sequence 2: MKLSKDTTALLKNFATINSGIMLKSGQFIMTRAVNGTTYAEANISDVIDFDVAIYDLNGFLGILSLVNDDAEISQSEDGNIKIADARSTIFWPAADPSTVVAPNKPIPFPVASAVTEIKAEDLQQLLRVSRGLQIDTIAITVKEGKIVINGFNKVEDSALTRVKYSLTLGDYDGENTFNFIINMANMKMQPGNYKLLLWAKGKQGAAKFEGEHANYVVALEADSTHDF

[3] = biological target: B3; assay: cryo-EM structure; 10 μM gp45 clamp mixed with 5 μM primer/template DNA (20 mM HEPES pH 7.5, 150 mM KOAc, 10 mM MgCl2, 0.5 mM ddTTP, 2 mM DTT; 10 min, 30°C), then 6 μM gp43 polymerase added (10 min room temperature, 1 h on ice); no clamp loader; conditions: both partners purified
[4] = biological target: the molecule itself; assay: as above
[5] = biological target: B4; assay: as above; conditions: both partners purified
[6] = biological target: B2; assay: as above; conditions: both partners purified

B1: P/T DNA (25-nt primer / 38-nt template) (dsDNA)
DNA 1: CTGCACGAATTAAGCAATTCGTAATCATGGTCATAGCT
DNA 2: AGCTATGACCATGATTACGAATTGC
modifications: primer 3'-terminal dideoxycytidine (ddC)
- binding result [1]: binds
- binding result [2]: binds

Binder: B2
- stoichiometry N [3]: 1 polymerase per clamp ring and 2 polymerases per clamp ring
- stoichiometry N [4]: 2

Binder: B3
- binding result [5]: binds
- binding result [6]: binds

Binder: B4
- stoichiometry N [3]: 1 polymerase per clamp ring
